Laboratory results from the DeepSol protein solubility set.

Experiment: soluble on expression in E. coli; label from the status in PepcDB or PDB records

Row | Sequence | soluble on expression in E. coli
1 | MRGSHHHHHHTDPALRARNRTLADLDRVVALGGGHGLGRVLSSLSSLGSRLTGIVTTTDNGGSTGRIRRSEGGIAWGDMRNCLNQLITEPSVASAMFEYRFGGNGELSGHNLGNLMLKALDHLSVRPLEAINLIRNLLKVDTHLIPMSEHPVDLMAIDDQGHEVYGEVNIDQLTTPIQELLLTPNVPATREAVHAINEADLIIIGPGSFYTSLMPILLLKEIAQALRRTPAPMVYIGNLGRELSLPAANLKLESKLAIMEQYVGKKVIDAVIVGPKVDVSAVKERIVIQEVLEASDIPYRHDRQLLHNALEKALQALGGLCGR | soluble
2 | MRGSHHHHHHTDPALRATIWVDADACPNVIKEILYRAAERMQMPLVLVANQSLRVPPSRFIRTLRVAAGFDVADNEIVRQCEAGDLVITADIPLAAEAIEKGAAALNPRGERYTPATIRERLTMRDFMDTLRASGIQTGGPDSLSQRDRQAFAAELEKWWLEVQRSRGGLCGR | soluble
3 | MRGSMGAMHVLTLDLAPVTPKDAPLLHRVFHLSPSYFALIGMELPTLEDVVRDLQTLEVDPRRRAFLLFLGQEPVGYLDAKLGYPEAEDATLSLLLIREDHQGRGLGRQALERFAAGLDGVRRLYAVVYGHNPKAKAFFQAQGFRYVKDGGPTLTWYVRPL | soluble
4 | MRHSFFCIDSHTCGNPVRLVAGGGPLLPHLPISERRDLFVRNHDWVRQALMFEPRGHDIMSGAVIYPAYRDDCDFAVIFIEVSGCLPMCGAGTIGLVTAAIEEGLVTPRIPGRLSIETPAGKVDIQYDKPGEFVESVRIFNVASYLHAADVEVNVPGLGKLVVDIAYGGNYYAVIEPQVGWPGLDGMTAGDVVDLSQKLRDALGTICDPVHPDDERIRGVHHAIWCDRPVSAEADGRGAVFYGDKAIDRSPGGTGTSARMAQLHGKGRLKAGETFRQESLIGTIFEGKVEEETTVGSFSGIRPSIGGWARIIGHNTIFVDDRDPLAHGFQVRLEHHHHHH | not soluble
5 | MRHTLPIAPQFYVTAPQSCPYLEGRLERKLFTALQGEHAQKLNDTLSKQGFRRSQNVLYRPSCAECSACLSARIRVADFEPTRTQRRVMKRNADLRRNATSPWATEDQYALFRRYLDDRHADGGMADMDIFEFAAMIEETPIRSRVIEYSRPGDTPSNRPLSAVCLTDIFDDGLSMVYSFYDPDLAGRSLGAYVILDHIEIAREAGLPYVYLGYWVPGSRKMGYKATYSALEIYKGGRWQAIGQPSDHRAELHPLSVDPIAEQVARISLPEARSGDRSRDLEHHHHHH | not soluble
6 | MRIGLFTDTYFPQVSGVATSIRTLKEELEKEGHEVYIFTTTDRDVKRFEDPTIIRLPSVPFVSFTDRRVVYRGLISSYKIAKHYNLDIIHTQTEFSLGLLGKMIGKALRIPVVHTYHTQYEDYVSYIANGKIIRPSMVKPLLRGYLKDLDGVICPSRIVLNLLEGYEVTIPKRVIPTGIPLEKYIRDDITAEEVTNLKAELGIAGDETMLLSLSRISYEKNIQAIINQMPAILAENAKIKLIIVGNGPYLQDLKHLAMQLEVDKHVTFTGMVPHDKVALYYKACDFFISASTSETQGLTYIESLASGTPIIAHGNPYLDDVVTDKMFGTLYYAETDLTDAIIDAILKTPVMDKRLLAKKRYEISAQHFGKSIYTFYLDTLIARNSKEAQKLSLYLNHSGKSSSLKLVQGAIHLPKRAAKVTAITSVKVVKAPIKLVHAIKDFLD | not soluble
7 | MRIHSPYPASWALAQRIGYLYSEGEIIYLADTPFERLLDIQRQVGQCQTMTSLSQADFEARLEAVFHQNTGESQQIAQDIDQSVDLLSLSEEMPANEDLLNEDSAAPVIRLINAILSEAIKETASDIHIETYEKTMSIRFRIDGVLRTILQPNKKLAALLISRIKVMARLDIAEKRIPQDGRISLRIGRRNIDVRVSTLPSIYGERAVLRLLDKNSLQLSLNNLGMTAADKQDLENLIQLPHGIILVTGPTGSGKSTTLYAILSALNTPGRNILTVEDPVEYELEGIGQTQVNTRVDMSFARGLRAILRQDPDVVMVGEIRDTETAQIAVQASLTGHLVLSTLHTNSASGAVTRLRDMGVESFLLSSSLAGIIAQRLVRRLCPQCRQFTPVSPQQAQMFKYHQLAVTTIGTPVGCPHCHQSGYQGRMAIHEMMVVTPELRAAIHENVDEQALERLVRQQHKALIKNGLQKVISGDTSWDEVMRVASATLESEA | not soluble
8 | MRINKPFSDDSNTVVFVSSKTYGVKEEAAHNPNVEFGVVLPTDFPAFNRALVQFLKRKKTKLNINLDSLIELYKKNENSGCFHTAIKTVITSVTFCETTPFTMKTKPEKNVEVAVQCAVEYHNLVKEYET | not soluble
9 | MRKCRCLKLRNVKLINIRRIAVMMRSSKMASERSTDVQAFIGELDGGVFETKIGAVLSEVASGVMNTKTKGKVSLNLEIEPFDENRLKIKHKLSYVRPTNRGKISEEDTTETPMYVNRGGRLTILQEDQGQLLTLAGEPDGKLRAAGHMAGDPLEHHHHHH | soluble
10 | MRKDRVTQGVDRIMQAIADKEFELGQAIPGEAKLAEFLDVSRPTMREVVRTLADRGVLEVVHGRGTFVAPLDHWSDVRSRVDFISRTLSPGEVGFHLTEVRRMIEVGSCGHAAARAEDCDLDRMQTALDAYDAALEAHDVAGIAKSDVEFHNAIFEATKNPVVTALMIPLEGELAASRLRTSAVSEVAERAQEHHRRIYSAIKASDEEGAKNAMRAHMSQTFDDLQRFVGEY | not soluble
11 | MRKFIFILLLIISSFSFCSNEISVDKSVEESVTKDYDQDGKYSSYERALRNAQGSIYVTLPEKRGYWYTILDRIKAEEDELMPDEKARIRRK | not soluble
12 | MRKGNTDLLLFFNGWGMDRRVADWLVSAWPDSAGRDIAVLYDYRNLSIPAWLGEVMAEARAVDLVAWSLGVWAAVNSELEKIDRAVAINGTATPLDAERGIPPEIFAGTLKSWNDANRKRFERRMTGGVPPKIVDATRSDRTSADQQAELLSLGEAVARFPAESTASWKFSKALIGGRDLIFSAENQRRAWSEAGVRVAEIAAMPHFPFTHIAGWGELFT | not soluble
13 | MRKISEMPKFERPREKLLERGVGYLSDLELLAVLIGNGTKDCSVMNVAGKVLKLLDKGCDRVSARVLQEIEGVGPAKSAVIAAALEFARRRIRPEGIKITSACDILPLISYLANRKQEHFVCVSLNGASEVIATRVVSVGLVNNVQVHPREVFADPITDRATAVIVAHNHPSGSVAPSQEDIEVTKRLKDAGNTLGIKLIDHIIFSRKGYFSFLENGQMPD | soluble
14 | MRKLKYQRDFFPLLHLNYGSNWRCGMDRIAYFKSLLEKNPDNPMVHYSLGLEYFKVKDYENAIKHLERYLELQEDEGAAYRTLAKCYEELGEFQKAIEVLEEGIRQAMKYNHPSMAQEYQQWIEELKGMAF | soluble
15 | MRKPRITYLDVWANDERIGTLEKGAMYRFAYDNPNSSLLGLHYQDRSKVYISNNMPHIFAQYFPEGFLDAHITSKYAFHDAPFEDNEMLRLAILCRETLGRIHVRCNDPLFNEWIDGLEMKNPRILTERDLLGINARQVFQQYMAEIFHHGRFVSVSGIQQKMSLDAIRRNTKQTASYIAKGFDASEYPCLAANEFLCMQTIKQAGIAVAQTSLSEDSSVLLVRRFDVSEQGYFLGMEDFTSLRQYSVEDKYKGSYAAIAQIIRQISGRPDEDLIHFFNQLAASCILKNGDAHLKNFSVLYHDEYDVRLAPVYDVLDTSIYRVGTQGIFDAYDDTLALNLTNHGKKTYPSKNTLLDFAEKYCDLGREDASFMIDTIVQAKEQVLVKYSDVLRENEWLAQKWHFIPDENEEGLPFTFR | not soluble
16 | MRKQWLGICIAAGMLAACTSDDGQQQTVSVPQPAVCNGPIVEISGADPRFEPLNATANQDYQRDGKSYKIVQDPSRFIQAGLAAIYDAEPGSNLTASGEAFDPTQLTAAHPTLPIPSYARITNLANGRMIVVRINDRGPYGNDRVISLSRAAADRLNTSNNTKVRIDPIIVAQDGSLSGPGMACTTVAKQTYALPAPPDLSGGAGTSSVSGPQGDILPVSNSTLKSEDPTGAPVTSSGFLGAPTTLAPGVLEGSEPTPAPQPVVTAPSTTPATSPAMVTPQAASQSASGNFMVQVGAVSDQARAQQYQQQLGQKFGVPGRVTQNGAVWRIQLGPFANKAEASTLQQRLQTEAQLQSFITTAQ | not soluble
